Tests used:
Test in all cases: IEDB peptide-MHC binding, purified MHC/competitive/fluorescence; filed as Kd, often an IC50 or EC50 that approximates it; ≥ and ≤ were set here for values at or beyond the usual limits of such assays
Details in all cases: source organism: human gammaherpesvirus 4
HLA-B*15:42 = target: HLA-B*15:42
HLA-B*27:20 = target: HLA-B*27:20
HLA-B*40:13 = target: HLA-B*40:13
HLA-B*45:06 = target: HLA-B*45:06
HLA-B*83:01 = target: HLA-B*83:01

## AQRAAGPSV
HLA-B*15:42
  Kd: 1190 nM
HLA-B*27:20
  Kd: 0.7 nM
HLA-B*40:13
  Kd: 212 nM
HLA-B*45:06
  Kd: 9.2 nM
HLA-B*83:01
  Kd: ≥ 5000 nM

— the Immune Epitope Database (IEDB)
